The values below come from patent publication US20240199755A1, “ANTAGONISTS AND AGONISTS OF THE TRANSFERRIN RECEPTOR-2 FOR USE IN THE TREATMENT OF DISEASES OF THE BONE” (Kymab Limited, priority 2018, published 2024).

This assay deals with T1, Tfr2-ECD (Mus musculus, UniProt Q9JKX3).
T1 construct: full-length extracellular domain (ECD, aa 103-798) of murine Tfr2; His (N); MBP (N); c3 (protease site between MBP and ECD) (N); made in house; host or cells: Sf9 insect cells (baculovirus, pOCC211-Tfr2-ECD)
T1 sequence (Q9JKX3 103-798): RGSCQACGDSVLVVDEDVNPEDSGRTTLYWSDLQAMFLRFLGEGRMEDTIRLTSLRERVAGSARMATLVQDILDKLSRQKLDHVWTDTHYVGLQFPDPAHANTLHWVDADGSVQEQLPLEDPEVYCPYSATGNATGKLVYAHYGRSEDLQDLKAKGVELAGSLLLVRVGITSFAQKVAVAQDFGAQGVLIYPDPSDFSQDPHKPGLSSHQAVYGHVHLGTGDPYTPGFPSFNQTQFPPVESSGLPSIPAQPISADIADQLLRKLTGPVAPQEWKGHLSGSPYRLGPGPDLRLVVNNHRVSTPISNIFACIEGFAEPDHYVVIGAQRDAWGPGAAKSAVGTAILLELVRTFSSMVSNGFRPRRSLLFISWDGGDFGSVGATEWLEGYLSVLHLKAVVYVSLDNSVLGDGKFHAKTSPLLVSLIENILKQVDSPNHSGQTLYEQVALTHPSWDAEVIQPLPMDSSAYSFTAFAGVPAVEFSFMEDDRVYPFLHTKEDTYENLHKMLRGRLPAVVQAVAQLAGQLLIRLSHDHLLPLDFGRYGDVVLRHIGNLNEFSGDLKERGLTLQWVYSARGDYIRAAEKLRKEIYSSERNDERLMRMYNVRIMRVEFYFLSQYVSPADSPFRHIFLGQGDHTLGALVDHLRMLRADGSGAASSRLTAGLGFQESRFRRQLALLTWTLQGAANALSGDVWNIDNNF
Briefly: SPR binding of holo-Tf and BMP receptors to Tfr2-ECD immobilized on the sensor chip. Details: species or system murine. As to conditions: 200 nM BMP receptors; binding level normalized to molecular weight. On the procedure: For this purpose, Tfr2-ECD is immobilized on a Series S Sensor Chip C1 (GE Healthcare), by means of coupling the amino groups at 25° C. The carboxyl groups on the chip surface are activated for 7 minutes using a mixture of 196 mM 1-ethyl-3-(3-dimethylaminopropyl) carbodiimide-hydrochloride and 50 mM n-hydroxysuccinimide at a flow rate of 10 μl/min. Subsequently, 5 μg/ml Tfr2-ECD, diluted with sodium acetate buffer (pH 4.5), is injected at a flow rate of 5 μl/min up to a relative occupancy of 200 RU. Non-reacted groups are inactivated by injecting 1 M thanolamine-HCl (pH 8.5) for 7 minutes at a flow rate of 10 μl/min. In order to prepare a reference surface, the same procedure is carried out but without Tfr2-ECD being injected.
The binding assays are carried out at 37° C. at a flow rate of 30 μl/min. Each analyte is diluted by a running buffer (HBS-P, pH 7.4 together with 50 nM FeCl3). […] The values of the binding level are read out, relative to the baseline, 10 s before the end of the injection and are corrected with respect to the molar mass. […] The binding parameters are determined using the Biacore™ T100 evaluation software 2.03. […]
For binding analysis, an injection of analyte for 240 s or 300 s over a Tfr2-ECD surface was followed by 1000 s dissociation. The values of the binding levels were recorded from referenced signals 10 s before the end of injection relative to baseline response. […]

B1: BMPR-II: type II BMP receptor (R&D Systems) (protein, UniProt Q13873 27-1038, looked up)
Bone morphogenetic protein …: SQNQERLCAFKDPYQQDLGIGESRISHENGTILCSKGSTCYGLWEKSKGDINLVKQGCWSHIGDPQECHYEECVVTTTPPSIQNGTYRFCCCSTDLCNVNFTENFPPPDTTPLSPPHSFNRDETIIIALASVSVLAVLIVALCFGYRMLTGDRKQGLHSMNMMEAAASEPSLDLDNLKLLELIGRGRYGAVYKGSLDERPVAVKVFSFANRQNFINEKNIYRVPLMEHDNIARFIVGDERVTADGRMEYLLVMEYYPNGSLCKYLSLHTSDWVSSCRLAHSVTRGLAYLHTELPRGDHYKPAISHRDLNSRNVLVKNDGTCVISDFGLSMRLTGNRLVRPGEEDNAAISEVGTIRYMAPEVLEGAVNLRDCESALKQVDMYALGLIYWEIFMRCTDLFPGESVPEYQMAFQTEVGNHPTFEDMQVLVSREKQRPKFPEAWKENSLAVRSLKETIEDCWDQDAEARLTAQCAEERMAELMMIWERNKSVSPTVNPMSTAMQNERNLSHNRRVPKIGPYPDYSSSSYIEDSIHHTDSIVKNISSEHSMSSTPLTIGEKNRNSINYERQQAQARIPSPETSVTSLSTNTTTTNTTGLTPSTGMTTISEMPYPDETNLHTTNVAQSIGPTPVCLQLTEEDLETNKLDPKEVDKNLKESSDENLMEHSLKQFSGPDPLSSTSSSLLYPLIKLAVEATGQQDFTQTANGQACLIPDVLPTQIYPLPKQQNLPKRPTSLPLNTKNSTKEPRLKFGSKHKSNLKQVETGVAKMNTINAAEPHVVTVTMNGVAGRNHSVNSHAATTQYANGTVLSGQTTNIVTHRAQEMLQNQFIGEDTRLNINSSPDEHEPLLRREQQAGHDEGVLDRLVDRRERPLEGGRTNSNNNNSNPCSEQDVLAQGVPSTAADPGPSKPRRAQRPNSLDLSATNVLDGSSIQIGESTQDGKSGSGEKIKKRVKTPYSLKRWRPSTWVISTESLDCEVNNNGSNRAVHSKSSTAVYLAEGGTATTMVSKDIGMNCL
For B1, the “Binding response of BMPRs to Tfr2-ECD compared with BMPs” value is listed as “weaker than BMPs”.
